Measurements published in the nanobody polyreactivity screen of Harvey et al. (2022).

Assay: yeast display, Sf9 membrane polyspecificity reagent, FACS + sequencing; frameworks hold sequencing errors
Method in brief: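 In a synthetic yeast display library (Saccharomyces cerevisiae BJ5465), nanobody expression was induced with galactose for 36–48 hours. FACS gates were set low and high (top ~1%) using anti-HA fluorescence for expression and streptavidin fluorescence for binding of the Sf9 membrane reagent. Each polyreactivity label is drawn from the gate of origin.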
With “QVQLEESGGGLVQAGGSLRLSCAAYGSTFSYNAMGGSRPAPGTQRELVAAITSSGSSTYYADSVKGRFTISRYNAKNTVYFQMNSLKPEDTAVYYCNAEVLFVAGQVQRNSGDYWGQGTQVTVSS” the “polyreactivity (PSR sort gate)” value was “low polyreactivity”.
For “QVQLEESGGGLVQAGGSLRLSCAAYYAMGWYRQAPGKERELVAAISSTGRTNYADSVKGRFTISRDNAKNTVYLQMNSLKPEDTAVYYCNAGDRSGMEYWGQGTQVTVSS”, the “polyreactivity (PSR sort gate)” value was “low polyreactivity”.
With “QVQLEESGGGLVQAGGSLRLSCADSGSTLYWNAMGWYRQAPGKERELVAVISESGGTTYYADSVKGRFTISRDNAKNTVYLQMNSLKPEDTAVYYCAAVWYYQFGVWGYYWGQGTQVTVSS” the “polyreactivity (PSR sort gate)” value was “low polyreactivity”.
With “QVQLEESGGGLVQAGGSLRLSCPPSGSTYYVYAMGWYRPAPGKERELVAAIDGGDTYYADSVKGGFTISRDNAMNTVFLQMNSLKPEDTAVYYCAAESLPEISVGLGFWGQGTQVTVSS” the “polyreactivity (PSR sort gate)” value was “low polyreactivity”.
With “QVQLEESGGGLVQAGGSLRLSFAASGYTFDPYDMGWYRQAPGKERELVASISWSGGDTYYADSVKGRFTISRDNAKNTVYLQMNSLKPEDTAVYYCAADRYIPRSIIMDYWGQGNQVTVSS” the “polyreactivity (PSR sort gate)” value was “low polyreactivity”.
In the case of “QVQLEESGGGLVQAGGSLRLSSAASGGTFRPYAMGWYRQAPGKERELVATIRSSGGRTYYADSVKGRFTISRDNAKNTVYLQMTSLKPEDTAVYYCAKRAQTYYGYDYWGQGTQVTVSS”, the “polyreactivity (PSR sort gate)” value is reported as “high polyreactivity”.
With “QVQLEESGGGLVQAGGSLRLSWAASGITFAYYAMGWYRQAPGKERELVAAINYNGGRTYYADSVKGRFTISRDNAKNTVYLQMNSLKPEDTAVYYCAARGYRHFYYWGQGTQVTVSS” the “polyreactivity (PSR sort gate)” value was “high polyreactivity”.
For “QVQLEESGGGLVQAGGSLRLTCAASGRIFFQNTIGWYRQAPGQERELVAAITSDGSTYYADSVKGRFTISRDNAKNTVYLQMNSLKPEDTAVYYCAAEISYRWWYKLGFTSFDYWGQGTQVTVSS”, the “polyreactivity (PSR sort gate)” value was “low polyreactivity”.
For “QVQLEESGGGLVQAGGSLRLTCAASGRTFDFYAMGWYRQAPGKEREFVAAITFSTGSTTYADSVKGRFTISRDNAKNTVYLQMNSLKPEDTAVYYCNADAFNKISYVWYDYWGQGTQVTVSS”, the “polyreactivity (PSR sort gate)” value was “low polyreactivity”.
In the case of “QVQLEESGGGLVQAGGSLRLTCAATGRIYFYGMGRYRQAPGNERELVATITSVSNTYYADSVKGRFTKSRDNAKNTVYLVMNSLKPEETAVYYCAAVTRGNWVYYWGQRTQVTVSS”, the “polyreactivity (PSR sort gate)” value is reported as “high polyreactivity”.
For “QVQLEESGGGLVQAGGSLRLTCAGSGSIFYVYPMGWYRPAPGKERELVAAIYSGASTYYADSVKGRFTISRDNAKNTVYLQKNSLKPEDTAVYYCAAYVFFQTYFSYYVEGDFWGQGTQVTVSS”, the “polyreactivity (PSR sort gate)” value was “low polyreactivity”.
In the case of “QVQLEESGGGLVQAGGSLRLTGAASGSTVVSYAMGWYRQERGKEWELVAAISSSSGRTRYADSVKGSFTISRDNAKNTVYLQMNSLKPEDTAVYYCAARRQSTRPGFYYWGQGTQVTVSS”, the “polyreactivity (PSR sort gate)” value is reported as “high polyreactivity”.
For “QVQLEESGGGLVQAGGSLRVSCAPSGRTFGWYTMGWYRQAPGKERELVAVISSTGGRTYYADSVKGRFTISRDNAKNTVYLQMNSLKPEDTAVYYCAAEYVSAKWESGYWGQGTQVTVSS”, the “polyreactivity (PSR sort gate)” value was “low polyreactivity”.
With “QVQLEESGGGLVQAGGSLSLSCAASGNFFVLYAMGCYRQAPGKERELVASITSDGITYYADSVKGRFTMSRDNAKNTVYLQMNSLKPEDTAVYYCAVDRSYRYLPRGDYWGQGTQVTVSS” the “polyreactivity (PSR sort gate)” value was “low polyreactivity”.
With “QVQLEESGGGLVQAGGSLSLSCDASGRNFEGYAMGWYRQAPGKERELVAAINWSGGTTHYADSVKGRFTISRDNANNTVYLQINSLKPADTAVYYCAVRGRTPYDYWGQGTQVTVSS” the “polyreactivity (PSR sort gate)” value was “low polyreactivity”.
In the case of “QVQLEESGGGLVQAGGTLRLSCAACGRTFYRYAMGWYRKAPGKERQLVAAISASGGITYYADSVKGRFTISRDNAKNNVYLQMNSLKADDTAVYYCAVRYNPWYGNYDYWGQGTQVTVSS”, the “polyreactivity (PSR sort gate)” value is reported as “high polyreactivity”.
With “QVQLEESGGGLVQAGGTLRLSCAASGRIFGWYAMGWYRQPPGKERELVAAISSGGRTNYADSVKGRFTISRDNAKNTVYLQMNSLKPEDTAVYYCNARSTYLPYKFGYDYWGQGTQVTVSS” the “polyreactivity (PSR sort gate)” value was “low polyreactivity”.
For “QVQLEESGGGLVQAGGTLRLSCAASGSIFRNYAMGWYRQAPGKEWQLVAAISRSGTSTYYADSVKGRFTISRDNAKNTVYFQMNSLKPEDYAVYYCNARTYVAVGFNYWGQGTQVTVSS”, the “polyreactivity (PSR sort gate)” value was “high polyreactivity”.
For “QVQLEESGGGLVQAGVSLRLSCAASGIIFHFNDMVWYRQAPGKERELLAAIDSTGSTNYADSVKGRFTISRDNAKNTVYLQMNSLKPEDTAVYYCAVLNHRVDSVLTRYYYWGQGTQVTVSS”, the “polyreactivity (PSR sort gate)” value was “low polyreactivity”.
With “QVQLEESGGGLVQAGVSLRLSCAASGRIFSSNAMGWYRQAPGKERELVAAITYSAGSTYYAVSVKGRFTISRDNAKNTVYLQMNSLKPEDTAVYYCAADSYYDRTIQFEFYARTYDYWGQGTQVTVSS” the “polyreactivity (PSR sort gate)” value was “low polyreactivity”.
In the case of “QVQLEESGGGLVQEGGSLRLSCAASGSIFGGYVMGWYRQAPGKERELVAVITKRGGSTYYADSVKGRFTISRDNAKNTVYFQMNSLKPEDTAVYYCNKDGYYASVLGYDYWGQGTQVTVSS”, the “polyreactivity (PSR sort gate)” value is reported as “high polyreactivity”.
With “QVQLEESGGGLVQGGCSLRLSCAGSGSIFIQYDMGWYRQAPVIERELVATIRSGDSTTYADSVKGRFTISRDNAKNTVYLQMNSLKPEDTAVYYCAKDYRLDYDYDYWGQGTQVTVSS” the “polyreactivity (PSR sort gate)” value was “low polyreactivity”.
For “QVQLEESGGGVVQAGGSLRISCAASGIIFYRYTMGWYRQAPGKERELVAAIASRGGSTYYADSVKGRFTISRDNAKNTVYLQMNSLKPEDTAVYYCAAGARYGKVRYGYWGQGTQVTVSS”, the “polyreactivity (PSR sort gate)” value was “high polyreactivity”.
For “QVQLEESGGGVVQAGGSLRLSCAASGSILGISAMGWYRPAPGKERALVAAIRTSSGSTYYADSVKVRFTISRDNAKNTVYFQMNSLKPEDTAVYSCAAYAFRYTPYYSWGQGTQVTVSS”, the “polyreactivity (PSR sort gate)” value was “high polyreactivity”.
In the case of “QVQLEESGGRLVQAGGSLRLSCAASGGIFADYAMGWDRPAPGKERELVADISARGGSTYYADSVKGRFTISRDNAKNTVYLQMNSLKPEDTAVYYCAADALGYDYYYWGQGTQVTVSS”, the “polyreactivity (PSR sort gate)” value is reported as “low polyreactivity”.
For “QVQLEESGRGLVQAGVSLRLSSAASGNTFVTNTMVWYRQAPGKERELVAAIDSGGDSYYADSVKGRFTISRDNAKNTVYFQMNSLKPEDTAVYYCAAVGDRNYFSNRRYEYWGQGTQVTVSS”, the “polyreactivity (PSR sort gate)” value was “low polyreactivity”.
In the case of “QVQLEESGVGLVQAGGSLRLRCAASGSTVTDNTKGWYRQAPGKERELVAPISGVGSTYYSESVKGRFTISRDNAKNTVYFQMHSLKPEDTAVYYCNVYWGPFYRSGDKYGYWGQGTQVTVSS”, the “polyreactivity (PSR sort gate)” value is reported as “low polyreactivity”.
For “QVQLEESGVGLVQAGGSLRLSWAASGFIIYINTMGWYRQAPGKERELVAAISQSGVGTSYADSVKGRFTISRDNAKNTVYLQMNRLKPEDTAVYYCATDCARSDVVDRFDYWGQGTQVTVSS”, the “polyreactivity (PSR sort gate)” value was “low polyreactivity”.
In the case of “QVQLEESVGGLVQAGGSLRLSCAASGRIFVRNAMGWYRQAPGKERELVATITSIGGRTYYADSVKGRFTISRDNAKNTVYLQMNSLKPEDTAVYYCAAYNTQSYPAYLRYDYWGQGTQVTVSS”, the “polyreactivity (PSR sort gate)” value is reported as “low polyreactivity”.
For “QVQLEETGGGLVQAGASLRISCAASGSIMGQNGMGWYRHAPGKEREFVAGIGYGTTTNYADSVKGRFTTSRDNAKNTVYLQMISMKPEDTAVYYCAAYQGNGYEFYYWGQGTQVTVRS”, the “polyreactivity (PSR sort gate)” value was “low polyreactivity”.
With “QVQLEETRGGLVQAGGSLRLSCAASGLFFGTYAMGWYRQPPGKEWELVAGITSSGGTTYYADSVKGRFTISRDNAKNTVYLQMNSLKPEDTAVYYCNARAVQSRYGYYYWGQGTQVTVSS” the “polyreactivity (PSR sort gate)” value was “low polyreactivity”.
With “QVQLEVSAGGLVQAGGSLRLSCAASGSTFGYYAMGWYRQAPGKEWELVAAITSGASTNYSDSVKGRFTISRDNAKNSVYLQMNSLKPEDTAVYYCAAGFQTRTPLNEFDYWGQGTQVTVSS” the “polyreactivity (PSR sort gate)” value was “low polyreactivity”.
For “QVQLGDSGGGLVQAGGSLRLSCAASGSIFSKYAMGWSRKAPGKERELVATISSSVGSTYYADSVKGRFTISRDNAKNSVYLQMNSLKPEDTAVYYCAARPDYEYGTHYRGGYWGQGTQVTVSS”, the “polyreactivity (PSR sort gate)” value was “low polyreactivity”.
With “QVQLGESGAGLVQAGGSLRLSCAASGRIFLIKAMGCDRQAPGKERELVAAIRRSVGSTYYADSVKGRFTISRDNAKNTVYLQMNSLKPEDTAVYYCATRDYYTYTGRTRYYYWGQGTQVTVSS” the “polyreactivity (PSR sort gate)” value was “high polyreactivity”.
With “QVQLGESGGCLVQAGGSLRLSCAASGSPFYTYAMGWYRQAPGKERELVAASSFGGGSTYADSVKGRFTISRDNAKNTLYLQMNSLKPDDTAGYYCNTDLYLYGWYPREVQQYAGGDYWGQGTQVTVSS” the “polyreactivity (PSR sort gate)” value was “low polyreactivity”.
In the case of “QVQLGESGGGLVEAGGSLRLSCAASGSTCKFYVMGWYRQAPGKERELVAAIAIGGSTNYADSVKGRFTISRDNAKNTVSVQMNSLKPEDTAVYYCAAELLQIHYYYVYLSPSFKCDYWGQGTQVTGSS”, the “polyreactivity (PSR sort gate)” value is reported as “low polyreactivity”.
With “QVQLGESGGGLVLAGGSLRLSCAASGSIFTHYAIGWYRQAPGKERELVAAISWSGGSTYYADSVKGRFTISRDNAQNTVYLQMNSLKPEDTAVYYCAALYYSRLSVSGEYDYWGQGTQVTVSS” the “polyreactivity (PSR sort gate)” value was “high polyreactivity”.
In the case of “QVQLGESGGGLVQAGGSLRISCAASGSILIANAMGWYRQAPGKERELVAPISRSGSTTYYADSVKGRFTISRDNAKNTVYLQMNSLKPEDTAVYYCNARYSLHSYYWFIYDSWGQGTQVTGSS”, the “polyreactivity (PSR sort gate)” value is reported as “low polyreactivity”.
For “QVQLGESGGGLVQAGGSLRLICAASGFIVTTYVMGWYRQAPGKERELVAVISRSGGRTYYADSVKGRFTISRDNAKNTVYLQMNSLKPEDTAVYYCNVDIPVLSHIEYYYWGQGTQVTVSS”, the “polyreactivity (PSR sort gate)” value was “low polyreactivity”.
In the case of “QVQLGESGGGLVQAGGSLRLRCAASGSTFEFYAMGWYRQAPGKERELVASITSSSGPTYYADSVKGRFTISRDNAKNTVYLQMNSLKPEDTAVFYCAKRPIRYYHLLRGNYWGQGTQVTVSS”, the “polyreactivity (PSR sort gate)” value is reported as “low polyreactivity”.
With “QVQLGESGGGLVQAGGSLRLSCAASGFTFTHYSMGWYRQAPGKERELVAAISTSGGSTYYADSVKGRFTISRDTAKNSVYLQMNSLKPEDTAVYYCAARRDGCVLWGYYYWGQGTQVTVSS” the “polyreactivity (PSR sort gate)” value was “low polyreactivity”.
